From US20230174604A1 (Innovent, published 2023)

Biological target: T1, IL-2Rα-Biotin (biotin-labeled human IL-2Rα, UniProt P01589 aa22-217, with C-terminal avi tag and His6 tag) (human, UniProt P01589 22-217, biotin on the avi tag (enzymatic labeling with BirA))
T1 construct: Expressed in HEK293-F, monomer peak collected; loaded on SA sensor or used to stain yeast; also called CD25; IL-2Rα receptor
T1 sequence: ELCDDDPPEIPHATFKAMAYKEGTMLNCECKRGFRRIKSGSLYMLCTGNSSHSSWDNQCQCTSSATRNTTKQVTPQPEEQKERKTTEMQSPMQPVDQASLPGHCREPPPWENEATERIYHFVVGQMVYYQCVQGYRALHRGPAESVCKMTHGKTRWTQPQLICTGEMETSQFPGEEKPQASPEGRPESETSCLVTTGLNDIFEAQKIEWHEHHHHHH
Assay: flow cytometry, yeast-displayed IL-2 stained with IL-2Rα-Biotin
Procedure: Yeast cells comprising a single mutant sequence after sequencing were induced by shaking at 20° C. for 24 h to display IL-2^mutant, and stained together with their receptors IL-2Rα-Biotin and IL-2Rβ IH-Biotin, respectively. The specific steps were as follows: [0191] […] 1. 1×10⁶ cells from each sample were centrifuged to discard the supernatant, and washed with FACS buffer once for later use; [0193] 2. the cells were added to 100 μL of FACS buffer containing 50 nM IL-2Rα-Biotin and Anti Flag antibody, and incubated at room temperature for 30 min; [0194] 3. the mixture was centrifuged at 3000 rpm at 4° C. for 3 min, and washed twice with pre-cooled FACS buffer; [0195] 4. […] 5. after being washed twice with pre-cooled FACS buffer, the cells were resuspended in 100 μL of buffer, and the binding level of IL-2^mutant to IL-2Rα was assayed by a flow cytometer (BD, ACCURI C6). [0197] II. […] 1. 1×10⁶ cells from each sample were centrifuged to discard the supernatant, and washed with FACS buffer once for later use; [0199] 2. the cells were added to 100 μL of FACS buffer containing IL-2Rβ IH-Biotin (30 nM-100 nM) and Anti Flag antibody, and incubated at room temperature for 30 min; [0200] 3. following steps 3-5 described above, the binding level of IL-2′ to IL-2Rβ was assayed.

B1: IL-2^3X displayed on the surface of yeasts (ligand)
chain: APTSSSTKKTQLQLEHLLLDLQMILNGINNYKNPKLTDMLTFEFYMPKKATELKHLQCLERELKPLEEVLNLAQSKNFHLRPRDLISNINVIVLELKGSETTFMCEYADETATIVEFLNRWITFSQSIISTLT
notes: control in the flow cytometry staining
- binding result: no binding (tested: 50 nM IL-2Rα-Biotin)
